Data reported in the supplement of paper PMC9112550, “Optimization of the antimicrobial peptide Bac7 by deep mutational scanning” (BMC Biology, 2022).

These sequences were tested on Escherichia coli TOP10 (assay: shrunken log2 fold change of peptide-encoding DNA abundance (4.5 h post-induction vs induction); higher = less antimicrobial activity (less host growth inhibition)). Settings: time post-induction: 4.5 h; library: site-saturation at positions 5, 18, 19, 20.
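Also: peptides expressed intracellularly from a pBAD plasmid library in pooled LB shake-flask culture, induced with 0.3% L-arabinose, DNA abundance read by NGS, three biological replicates, DESeq2 with apeglm shrinkage.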

Sequence	shrunken log2 fold change
RRIRVRPPRLPRPRPRPYVLPRP	-1.12
RRIRVRPPRLPRPRPRPYYFPRP	-0.777
RRIRWRPPRLPRPRPRPAAEPRP	1.21
RRIRWRPPRLPRPRPRPAALPRP	0.257
RRIRWRPPRLPRPRPRPAARPRP	0.622
RRIRWRPPRLPRPRPRPACLPRP	0.521
RRIRWRPPRLPRPRPRPACTPRP	0.334
RRIRWRPPRLPRPRPRPADSPRP	-0.29
RRIRWRPPRLPRPRPRPAFIPRP	0.0835
RRIRWRPPRLPRPRPRPAHEPRP	0.1
RRIRWRPPRLPRPRPRPAICPRP	-0.0928
RRIRWRPPRLPRPRPRPAIQPRP	0.0853
RRIRWRPPRLPRPRPRPAKQPRP	0.0759
RRIRWRPPRLPRPRPRPALGPRP	0.645
RRIRWRPPRLPRPRPRPALRPRP	0.243
RRIRWRPPRLPRPRPRPAMNPRP	-0.326
RRIRWRPPRLPRPRPRPAPAPRP	1.38
RRIRWRPPRLPRPRPRPAPWPRP	0.319
RRIRWRPPRLPRPRPRPAPYPRP	-0.0336
RRIRWRPPRLPRPRPRPAQMPRP	0.173
RRIRWRPPRLPRPRPRPAREPRP	0.138
RRIRWRPPRLPRPRPRPARTPRP	0.705
RRIRWRPPRLPRPRPRPASWPRP	0.576
RRIRWRPPRLPRPRPRPATDPRP	0.258
RRIRWRPPRLPRPRPRPATEPRP	0.479

Sequence	shrunken log2 fold change
RRIRWRPPRLPRPRPRPATFPRP	0.311
RRIRWRPPRLPRPRPRPATTPRP	0.859
RRIRWRPPRLPRPRPRPATVPRP	0.111
RRIRWRPPRLPRPRPRPAVQPRP	0.792
RRIRWRPPRLPRPRPRPAWGPRP	0.477
RRIRWRPPRLPRPRPRPAWIPRP	0.035
RRIRWRPPRLPRPRPRPAWKPRP	0.143
RRIRWRPPRLPRPRPRPAYMPRP	-0.205
RRIRWRPPRLPRPRPRPCCAPRP	0.47
RRIRWRPPRLPRPRPRPCCTPRP	0.0894
RRIRWRPPRLPRPRPRPCDWPRP	0.0315
RRIRWRPPRLPRPRPRPCFLPRP	-0.462
RRIRWRPPRLPRPRPRPCGGPRP	0.123
RRIRWRPPRLPRPRPRPCGTPRP	0.481
RRIRWRPPRLPRPRPRPCHCPRP	-0.102
RRIRWRPPRLPRPRPRPCHMPRP	-0.0433
RRIRWRPPRLPRPRPRPCIDPRP	-0.0447
RRIRWRPPRLPRPRPRPCINPRP	-0.374
RRIRWRPPRLPRPRPRPCIWPRP	0.0256
RRIRWRPPRLPRPRPRPCKNPRP	-0.0451
RRIRWRPPRLPRPRPRPCKRPRP	0.118
RRIRWRPPRLPRPRPRPCLCPRP	-0.0914
RRIRWRPPRLPRPRPRPCLPPRP	-0.341
RRIRWRPPRLPRPRPRPCMEPRP	-0.0563
RRIRWRPPRLPRPRPRPCMYPRP	-0.325

Sequence	shrunken log2 fold change
RRIRWRPPRLPRPRPRPCNLPRP	-0.161
RRIRWRPPRLPRPRPRPCNSPRP	-0.281
RRIRWRPPRLPRPRPRPCPQPRP	-0.134
RRIRWRPPRLPRPRPRPCPSPRP	0.0767
RRIRWRPPRLPRPRPRPCPWPRP	-0.0137
RRIRWRPPRLPRPRPRPCQEPRP	-0.15
RRIRWRPPRLPRPRPRPCQMPRP	-0.0107
RRIRWRPPRLPRPRPRPCQTPRP	-0.0122
RRIRWRPPRLPRPRPRPCSQPRP	0.0161
RRIRWRPPRLPRPRPRPCTGPRP	-0.0547
RRIRWRPPRLPRPRPRPCTRPRP	-0.161
RRIRWRPPRLPRPRPRPCWDPRP	0.0945
RRIRWRPPRLPRPRPRPCWRPRP	0.0637
RRIRWRPPRLPRPRPRPCYRPRP	0.131
RRIRWRPPRLPRPRPRPDAIPRP	-0.0199
RRIRWRPPRLPRPRPRPDAKPRP	0.0403
RRIRWRPPRLPRPRPRPDCAPRP	0.97
RRIRWRPPRLPRPRPRPDFSPRP	-0.0269
RRIRWRPPRLPRPRPRPDFVPRP	0.0377
RRIRWRPPRLPRPRPRPDHIPRP	-0.0546
RRIRWRPPRLPRPRPRPDIMPRP	0.0439
RRIRWRPPRLPRPRPRPDINPRP	0.235
RRIRWRPPRLPRPRPRPDKRPRP	-0.00125
RRIRWRPPRLPRPRPRPDLIPRP	0.0332
RRIRWRPPRLPRPRPRPDMKPRP	0.0231

Sequence	shrunken log2 fold change
RRIRWRPPRLPRPRPRPDNKPRP	-0.571
RRIRWRPPRLPRPRPRPDNNPRP	-0.0431
RRIRWRPPRLPRPRPRPDPNPRP	0.196
RRIRWRPPRLPRPRPRPDQFPRP	-0.0202
RRIRWRPPRLPRPRPRPDRLPRP	-0.0216
RRIRWRPPRLPRPRPRPDSFPRP	0.00192
RRIRWRPPRLPRPRPRPDSIPRP	-0.243
RRIRWRPPRLPRPRPRPDSKPRP	-0.133
RRIRWRPPRLPRPRPRPDSWPRP	0.251
RRIRWRPPRLPRPRPRPDVIPRP	-0.118
RRIRWRPPRLPRPRPRPDVNPRP	-0.125
RRIRWRPPRLPRPRPRPEARPRP	0.106
RRIRWRPPRLPRPRPRPEAVPRP	1.05
RRIRWRPPRLPRPRPRPECKPRP	0.685
RRIRWRPPRLPRPRPRPECMPRP	0.623
RRIRWRPPRLPRPRPRPECPPRP	0.341
RRIRWRPPRLPRPRPRPEDEPRP	0.0692
RRIRWRPPRLPRPRPRPEDRPRP	0.213
RRIRWRPPRLPRPRPRPEEHPRP	0.23
RRIRWRPPRLPRPRPRPEFIPRP	0.186
RRIRWRPPRLPRPRPRPEFLPRP	0.374
RRIRWRPPRLPRPRPRPEFRPRP	0.422
RRIRWRPPRLPRPRPRPEFSPRP	0.109
RRIRWRPPRLPRPRPRPEGEPRP	1.27
RRIRWRPPRLPRPRPRPEGQPRP	4.45

Sequence	shrunken log2 fold change
RRIRWRPPRLPRPRPRPEIEPRP	0.193
RRIRWRPPRLPRPRPRPEILPRP	-0.0318
RRIRWRPPRLPRPRPRPEKCPRP	0.0983
RRIRWRPPRLPRPRPRPEKFPRP	0.0209
RRIRWRPPRLPRPRPRPEKKPRP	0.0589
RRIRWRPPRLPRPRPRPEKSPRP	0.486
RRIRWRPPRLPRPRPRPEKWPRP	0.0948
RRIRWRPPRLPRPRPRPELQPRP	0.326
RRIRWRPPRLPRPRPRPELTPRP	0.772
RRIRWRPPRLPRPRPRPEPHPRP	0.65
RRIRWRPPRLPRPRPRPEQGPRP	-0.00277
RRIRWRPPRLPRPRPRPEQRPRP	0.248
RRIRWRPPRLPRPRPRPERDPRP	0.128
RRIRWRPPRLPRPRPRPERYPRP	0.142
RRIRWRPPRLPRPRPRPESDPRP	0.59
RRIRWRPPRLPRPRPRPESMPRP	0.636
RRIRWRPPRLPRPRPRPEWIPRP	0.475
RRIRWRPPRLPRPRPRPEYCPRP	1.23
RRIRWRPPRLPRPRPRPFAMPRP	-0.148
RRIRWRPPRLPRPRPRPFANPRP	-0.0747
RRIRWRPPRLPRPRPRPFCVPRP	-0.0188
RRIRWRPPRLPRPRPRPFDKPRP	-0.012
RRIRWRPPRLPRPRPRPFEDPRP	0.104
RRIRWRPPRLPRPRPRPFEIPRP	0.0217
RRIRWRPPRLPRPRPRPFEMPRP	-0.116

Sequence	shrunken log2 fold change
RRIRWRPPRLPRPRPRPFETPRP	0.0441
RRIRWRPPRLPRPRPRPFFTPRP	-0.0367
RRIRWRPPRLPRPRPRPFGDPRP	-0.249
RRIRWRPPRLPRPRPRPFGWPRP	0.118
RRIRWRPPRLPRPRPRPFKVPRP	0.00438
RRIRWRPPRLPRPRPRPFKWPRP	-0.223
RRIRWRPPRLPRPRPRPFLDPRP	-0.233
RRIRWRPPRLPRPRPRPFLLPRP	-0.0846
RRIRWRPPRLPRPRPRPFMIPRP	-0.798
RRIRWRPPRLPRPRPRPFMTPRP	0.183
RRIRWRPPRLPRPRPRPFNAPRP	-0.342
RRIRWRPPRLPRPRPRPFNEPRP	-0.69
RRIRWRPPRLPRPRPRPFNLPRP	0.0233
RRIRWRPPRLPRPRPRPFPIPRP	-0.169
RRIRWRPPRLPRPRPRPFSFPRP	-0.067
RRIRWRPPRLPRPRPRPFTTPRP	-0.0833
RRIRWRPPRLPRPRPRPFVDPRP	0.0365
RRIRWRPPRLPRPRPRPFWPPRP	0.161
RRIRWRPPRLPRPRPRPFWSPRP	0.284
RRIRWRPPRLPRPRPRPFWVPRP	0.00637
RRIRWRPPRLPRPRPRPFWWPRP	0.402
RRIRWRPPRLPRPRPRPFYPPRP	-0.239
RRIRWRPPRLPRPRPRPGACPRP	0.188
RRIRWRPPRLPRPRPRPGAIPRP	-0.096
RRIRWRPPRLPRPRPRPGCGPRP	0.784
